Assay results taken from patent publication US20170114140A1 (Amgen, published 2017).
Positions count from the first letter of the chain named.

B1: 4.16.1 (antibody, IgG2, V domains shown)
VH: QVQLVQSGAEVKKPGASVKVSCKASGYTLTSYGISWVRQAPGQGLEWMGWISAYSGNTKYAQKFQGRVTMTTDTSTSTAYMELRSLRSDDTAVYYCARRQLALDYWGQGTLVTVSS
VL: EIVMTQSPATLSVSPGERATLSCRASQSISSNLAWYQQKPGQAPRLLIYGASTRATGIPARFSDNGSGTEFTLTISSLQSEDFAVYFCQQYDTWPLTFGGGTKVEIK
B2: 3.381.1 (antibody, IgG2, V domains shown)
VH: B1 VH with L29F, S31R, K59N, F64L, A102Y, L103F
VL: EIVMTQSPATLSVSPGERVTLSCRASQSVSSNLAWFQQKPGQAPRPLIYDASTRAAGIPARFSGSGSGTDFTLTISSLQSEDFAVYYCQQYDNWPLTFGGGTKVEIK
B3: 2.46.1 (antibody, V domains shown)
VH: QVQLVQSGAEVKKPGASVKVSCKASGNTFTGYGISWVRQAPGQGLEWMGWISAYNGNTNYAQNLQGRVTMTTDTSTSTAYMELRSLRSDDTAVYYCARRDYDILTGYYNGFDPWGQGTLVTVSS
VL: DIQMTQSPSSLSASVGDRVTITCRASQGIRNDLGWYQQKPGKAPKRLIYAASSLQSGVPSRFSGSGSGTEFTLTISSLQPEDFATYYCLQHKSYPLTFGGGTKVEIK
B4: 2.225.1 (antibody, V domains shown)
VH: B3 VH with A9V, N27Y, F29L, G31R, N63K
VL: B3 VL
B5: 2.98.1 (antibody, V domains shown)
VH: B3 VH with N27Y, F29L, G31R, N63K
VL: B3 VL
B6: 2.67.1 (antibody, V domains shown)
VH: B3 VH with N27Y, F29L, G31R, N63K
VL: B3 VL
B7: 2.133.1 (antibody, V domains shown)
VH: QVQLQESGPGLVKPSETLSLTCTVSGGSISNYYWNWIRQSPGKGLEWIGDIYYSGSTNYNPSLKSRVTISVDTSKNQFSLKLSSVTTADTAVYYCARDGELANYYGSGSYQFYYYYGMDVWGQGTTVTVSS
VL: B3 VL with Q3L, K92N, Y94N, L96F, G100P, E105D
B8: 1.185.1 (antibody, V domains shown)
VH: QVQLVESGGGVVQPGRSLRLSCAASGINFSSYGMHWVRQAPGKGLEWVAVIWYDGSNKHYADSVKGRFTISRDNSKNTLYLQMNSLRAEDTAVYYCARDTGVYWGQGTLVTVSS
VL: not shown
B9: 3.1545.1 (antibody, V domains shown)
VH: EVQLVESGGGSVQPGGSLRLSCAASGFTFSSYSMNWVRQAPGKGLEWVSIISSRSSIIHYADSVKGRFTISRDNAKNSLYLQMNSLRDEDTAVYYCARPKVGGGMDVWGQGTTVTVSS
VL: DIQMTQSPSSLSASVGDRVTITCRASQGISNYLAWYQQKPGKFPELLIYAASTLQSGVPSRFSGSGSGTDFTLTISSLQPEDVATYYCQKYNRAPFTFGPGTKVDIK
B10: 2.23.1 (antibody, V domains shown)
VH: QVQLVESGGGLVKPGGSLRLSCAASGFTFSDYYMSWIRQAPGKGLEWVSYISSSGSTIYYADSVKGRFTISRDNAKNSLYLQMNSLRAEDTAVYYCARDRTYYFGSGSYEGMDVWGQGTTVTVSS
VL: EILMTQSPATLSVSPGERATLSCRASQSVYSNLAWYQQKPGQAPRLLISGASTRATGIPARFSGSGSGTEFTLTISSLQSEDFAVYYCQQYYNWPWTFGQGTKVEIK
B11: 3.1404.1 (antibody, IgG2, V domains shown)
VH: B1 VH with L29F, S31R, A53T, K59N, F64L, A102Y, L103F
VL: B2 VL with V19A, A56T, I58V
B12: 4.357.1 (antibody, V domains shown)
VH: B1 VH with A53T, S55K, K59N, F64L, R99K, A102V, L103F
VL: B1 VL with N32S, D64G, N65S, D82N, F87Y, T93N
B13: 4.393.1 (antibody, V domains shown)
VH: B1 VH with L29F, S55N, F64L, A79V, R99K, A102V, L103F
VL: B1 VL with S31T, N32S, A51T, D64G, N65S, T93I
B14: IL-17RB.Fc (extracellular domain of human IL-17RB fused to the Fc region of human IgG) (Fc fusion, UniProt Q9NRM6 18-292, looked up, not shown: a dimerising Fc or GST)
chain: REPTVQCGSETGPSPEWMLQHDLIPGDLRDLRVEPVTTSVATGDYSILMNVSWVLRADASIRLLKATKICVTGKSNFQSYSCVRCNYTEAFQTQTRPSGGKWTFSYIGFPVELNTVYFIGAHNIPNANMNEDGPSMSVNFTSPGCLDHIMKYKKKCVKAGSLWDPNITACKKNEETVEVNFTTTPLGNRYMALIQHSTIIGFSQVFEPHQKKQTRASVVIPVTGDSEGATVQLTPYFPTCGSDCIRHKGTVVLCPQTGVPFPLDNNKSKPGGWLP
notes: extracellular domain; also called HuIL-17RB: Fc

Molecular target: T1, human IL-17RA on cells (human PBMC; human foreskin fibroblasts) (human, UniProt Q96F46 33-866)
Experiment: cell-based or functional assay

Binder | % Inhibition of IL-5 production (TSLP treated human PBMC + IL-2 + IL-25), inhibitor 10 micrograms/mL [%]
B1 | 86
B2 | 100

Molecular target: T1, human IL-17RA on cells (human PBMC; …)
Experiment: cell-based or functional assay
Remark: another data set of the same source

Binder | % Inhib. of IL-5 production (TSLP treated human PBMC + IL-2 + IL-25), Expt. 1 [%] | % Inhib. of IL-5 production (TSLP treated human PBMC + IL-2 + IL-25), Expt. 2 [%] | % Inhib. of IL-5 production (TSLP treated human PBMC + IL-2 + IL-25), Expt. 3 [%]
B3 | 0 | 6 | 0
B4 | 0 |  | 0
B5 | 0 | 79 | 0
B6 | 0 | 13 | 3
B7 | 0 | 16 | 28
B8 | 0 | 41 | 9
B9 | 0 | 43 | 0
B10 | 0 |  | 0
B1 |  | 77 | 100
B11 |  |  | 69
B12 | 0 |  | 11
B13 | 28 | 72 | 45
B2 | 69 | 82 | 74

Molecular target: T2, IL-17RA.HIS (extracellular domain of human IL-17RA fused to a polyhistidine tag) (human, UniProt Q96F46 33-320)
T2 construct: extracellular domain
Experiment: co-immunoprecipitation on Protein G beads, Western blot with anti-IL-17RA

Binder | binding result
B14 | binds
